Assay [1] has as its target HA-PKM2 (wild type), expressed in 293T cells (human) (UniProt P14618). Description: SEC; cell lysates (A549, H1299 or transfected 293T; with shCIP2A, pCDH-CIP2A or Flag-CIP2A) on Superdex 200 Increase 10/300 GL, 50 mM sodium phosphate, 0.15 M NaCl, pH 7.2; fractions analysed by western blot; both exogenous and endogenous PKM2 included. Background: In gel filtration, larger molecules generally elute earlier.

For assay [2], the target named is purified recombinant WT PKM2 expressed in bacteria (human) (UniProt P14618). Description: SEC; purified recombinant WT, S287A and S287D PKM2 expressed in bacteria; size exclusion chromatography with molecular mass standards.
For assay [3], the target named is pyruvate kinase M2 (PKM2), endogenous (human (endogenous in A549 and H1299)) (UniProt P14618). Description: cross-linking; H1299 cell lysates (with Flag-CIP2A or siCIP2A) treated with 0.01% glutaraldehyde at 37 °C for 9 min, SDS-PAGE, western blot with anti-PKM2. In general terms: A western blot detects proteins with antibodies after separation by electrophoresis.

Consider 3 substances from article PMC10847417.

Chain of pyruvate kinase M2 (PKM2), endogenous, P14618 1-531 (enzyme; other documents disagree on this pair) (P14618 whole entry): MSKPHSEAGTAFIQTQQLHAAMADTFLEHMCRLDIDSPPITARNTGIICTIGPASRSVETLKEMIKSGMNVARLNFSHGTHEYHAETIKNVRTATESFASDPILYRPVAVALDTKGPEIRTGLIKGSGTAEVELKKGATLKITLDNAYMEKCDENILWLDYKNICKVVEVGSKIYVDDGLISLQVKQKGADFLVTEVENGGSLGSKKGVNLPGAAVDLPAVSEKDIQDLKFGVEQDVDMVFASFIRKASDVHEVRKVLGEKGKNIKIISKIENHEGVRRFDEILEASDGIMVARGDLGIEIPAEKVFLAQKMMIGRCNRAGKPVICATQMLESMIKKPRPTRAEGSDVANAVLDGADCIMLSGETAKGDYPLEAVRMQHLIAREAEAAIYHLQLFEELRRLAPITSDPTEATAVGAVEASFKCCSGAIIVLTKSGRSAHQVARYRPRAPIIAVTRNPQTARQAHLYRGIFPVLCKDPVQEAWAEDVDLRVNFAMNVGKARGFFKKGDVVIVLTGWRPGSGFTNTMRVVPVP
Chain of purified recombinant WT PKM2 expressed in bacteria, P14618 1-531 (enzyme; other documents disagree on this pair) (P14618 whole entry): as above
Chain of HA-PKM2 (wild type), expressed in 293T cells, P14618 1-531 (enzyme; other documents disagree on this pair) (P14618 whole entry): as above

For the substance “HA-PKM2 (wild type), expressed in 293T cells, P14618 1-531 (enzyme; other documents disagree on this pair)”, the stoichiometry N (usually a count of units in the complex or per binding partner) in assay [1] came out at 2.

As to “purified recombinant WT PKM2 expressed in bacteria, P14618 1-531 (enzyme; other documents disagree on this pair)”, the stoichiometry N in assay [2] turned out to be 2.

For “pyruvate kinase M2 (PKM2), endogenous, P14618 1-531 (enzyme; other documents disagree on this pair)”, the stoichiometry N in assay [3] worked out at 2.
